Measured values: PMC11180644, “Discovery, characterization and mechanism of a Microbacterium esterase for key d-biotin chiral intermediate synthesis” (Bioresources and Bioprocessing, 2024)

Substrate: COC(=O)[C@@H]1[C@H](C(=O)OC)N(Cc2ccccc2)C(=O)N1Cc1ccccc1
Experiment: HPLC of released monomethyl ester; Michaelis-Menten fit (GraphPad Prism)
Type: biochemical, Microbacterium aurantiacum
Details: 0.2 mol/L PBS pH 8.0, 30 °C, 10 min, DMSO as substrate solvent, 0.1-12 mmol/L diester
Text: HPLC of released monomethyl ester; Michaelis-Menten fit (GraphPad Prism) on […]01 | the Km value

B1: EstSIT01 (Microbacterium aurantiacum) (protein)
chain: MTLFDGITSRIVDTDRLTVNILERAADDPQTPPDRTVVFVHGNVSSALFWQEIMQDLPSDLRAIAVDLRGFGGSEHAPVDATRGVRDFSDDLHATLEALDIPVAHLVGWSMGGGVVMQYALDHPVLSLTLQSPVSPYGFGGTRRDGSRLTDDDAGCGGGGANPDFIQRLIDHDTSDDAQTSPRSVFRAGYVASDYTTDHEDVWVESMLTTSTADGNYPGDAVPSDNWPGFAAGRHGVLNTMAPQYFDVSGIVDLAEKPPILWIHGTADAIVSDASFYDLNYLGQLGIVPGWPGEDVAPAQEMVSQTRDVLGRYAAGGGTVTEVAVEGAGHSAHLERPAVFRHALLEIIGYVGAAADPAPPTEAIIIRSAD
notes: C-terminal 6xHis tag, pET21a, E. coli BL21(DE3), Ni-NTA purified; catalytic triad Ser110-His330-Asp268
For B1, the Km was 147 µM and the kcat was 5.808 s⁻¹.
